The source of these data is paper PMC9080080 (Cell Reports, 2022).

The assay has as its target SARS-CoV S2P protein (SARS-CoV, strain  (reference …, UniProt P59594, stabilised)). Briefly: SPR. On the technique in general: Surface plasmon resonance follows binding to a sensor surface in real time, without labels.

B1: XMA09 (antibody, V domains shown)
VH: QVQLVQSGAEVKKPGSSVKVSCKASGGTFSSFAISWVRQAPGQGLEWMGGIIPIYGTANYAQKFQGRVTITADESTSTAYMDLSSLRSEDTAVYYCARDGSSTYYPHNWFDPWGQGTLVTVSS
VL: QSVLTQPPSVSGAPGQRVTISCTGSSSNIGSGYDVHWYQQLPGTAPKLLIYGNSNRPSGVPDRFSGSKSGTSASLAITGLQAEDEADYYCQSYDSSLSGVFGTGTKVTVL
In the case of B1, the binding result is given as “binds”.
